According to doi:10.1101/2023.11.17.567546:

How the values were obtained:
Hfq [1] = biological target: Hfq (UniProt P0A6X3); experiment: EMSA
Hfq [2] = biological target: Hfq (UniProt P0A6X3); experiment: lead acetate footprinting

Hfq, sequence (P0A6X3 whole entry): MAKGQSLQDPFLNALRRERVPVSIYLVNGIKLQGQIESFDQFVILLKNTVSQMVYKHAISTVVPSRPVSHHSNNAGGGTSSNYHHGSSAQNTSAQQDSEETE

What does the source list for “GCGCCAACGUCGCAUCUGGUUCUCAUCAUCGCGUAAUAUUGAUGAAACCUGCGGCAUCCUUCUUCUAUUGUGGAUGCUUUACAAUGAUUAAAAAAGCUUCGCUGCUGACGGCGUGUUCCGUCACGGCAUUUUCCGCUUGGGCACAGGAUACCAGCCCGGAUACUCUCGUCGUUACUGCUAACCGUUUUGAACAGCCGCGCAGCACUGUGCUUGCACCAACCACCGUUGUGACCCGUCAGGAUAU [btuB mRNA -80 to +161]”?
binding (Hfq [1]): binds; binding (Hfq [2]): binds
